The series is described as follows: label from the status in PepcDB records.
For the sequence “MKAIIMAGGQGKRLRPLTCNLPKPMMPIMQKPVLQYIIELLKKHGINEIGITLHYLPDEVMDYFGDGKELGVNIHYFIEQSPLGTAGSVRNAESFLDETFVVISGDALTDVNLTNILQYHKEKNAMVTIVLKKVTIPLEYGVAITDTEGRISNFIEKPGWGEIFSDKANTGIYVMEPGIFEFYNKDKKFDFSEELFPELLKSGKEIFGYVVNDYWRDIGNIEQFMKCNFDILNGYVDVDVDIDASQHQKGVWIGKNTIVSDNVKVIPPVYIGDNSEIRYGAEIGPFAVIGRNNIISEMATIKRSIIFENCYIGSGAELRGSVVSNNVQVGGGVSTFEESAIGTGSLVGEKSVVKAGVKIWPDKVIGSKTIIKTNVVWGENRCKVLFGKEGISGEINVELTPEFVSKLASAFASNLRMNSKVVVCSDYNLAAEMLKYSFVSGLISMGIEVYSAKEMTIPMLRFSTAYFKADAAVYIYCKGSNKEKVNILFIDKDGIMISRSMEKKIANSFLREDFRRTRANNFKRLRDFGECMGYYEDYIKENLCIQEIRNSGLKVAVSMENKLIKNEVKSIFSDLKIQYSIYDNYADLEGLKKEVIEKKMDFGVCISENCDKAIIIDENANIISTQMYESIKALILISVYKFKTIVAPVNSSKALKYIAKRYNCKYVKSKISERYILNEYILNEKDKNIKEVLFSYLSSTDALNIVINIINILARGKIKLSELMERIPNYILREKEIACSWDNKGKIMRSLIEENISKSIELIEGIKVNYEDAWVLIIPDSDEPICKIYAESNDEEKTDKIINEFESEIELFMKN”, the protein production result is recorded as “failed”. For “MIVTLLAVGAAAAVGAVARYMLDQYVQYRSPGLFPLGTWLINVTGSFVLGLLVGLGARHGLPEQFVPIAGVGFCGAYTTFSTFSYELVHLREKGQVRKSLLYGASSLTAGLLAAAAGLAVESF” the value was “failed”; for “MGNAGESKKSNSDSAKGEEKASGSLTISGSSAMQPLVLAAAEKFMEENPDADIQVQAGGSGTGLSQVSEGAVQIGNSDVFAEEKEGIDAKALVDHQVAVVGMAAAVNPDAGVKDISKDELKKIFTGKIKNWKELGGKDQKITLVNRPDSSGTRATFVKYALDGAEPAEGITEDSSNTVKKIIADTPGAIGYLAFSYLTDDKVTALSIDGVKPEAKNVATGEYPIWAYQHSYTKGEATGLAKEFLDYLKSEDIQKSIVTDQGYIPVTDMKVTRDANGKQSLEHHHHHH”, “failed”.

As to “MKIAVLGATGRAGSAIVAEARRRGHEVLAVVRDPQKAADRLGATVATLVKEPLVLTEADLDSVDAVVDALSVPWGSGRGYLHLDFATHLVSLLRNSDTLAVFILGSASLAMPGADHPMILDFPESAASQPWYDGALYQYYEYQFLQMNANVNWIGISPSEAFPSGPATSYVAGKDTLLVGEDGQSHITTGNMALAILDQLEHPTAIRDRIVVRDADLEHHHHHH”, the protein production entry is “not failed”. The result for “MTKRHVSLPADAKDVRRAFVSGVDERLSAAETPDELATAVTGTLADLRGERDAYEAWRDGDDVRPAAAARLATLDPRNASLESEYYAEKDEAAFARSKPLQWLWRQFDTTPLADNVDVALPFRRMLAGHLFAGVGEDVRLFKGITMTYGHNIELGDNAVVHDGVHLDDRGELVVGARASVSNGAHLYTHDHDVVDQTDVTNYRTEIGADARVTQGALVRAGVRVGENALVGSRSVVQGDVPAHHIAVGSPAESVRVKPGWEAVAAPLDAGLEHHHHHH” reads “not failed”; that for “MNFDRTFLTFLGVIMLVHLHIFFAFLSLALLVIRGAMQLNGKNWRSIKLLKILPHLSDTLLIVSGVVILYLFAFGIEWWLVAKFALLILYIVFAAKFFSKKVSQPKSIFFWLACVSFIGAMLIAYLK”, “failed”. The result for “MDKALTNHVIILSFDCLSALDFPILQKLPHFQSLIKKGTVVEKVEPIYPSVTYPSHSTIVTGNYPNKHGVVSNTLLQPGRESPDWHWYRKSIKGTTLYDEARKANLTTAALLWPVTGRANIDYNLPEIFPNRPWQNQVLVSLFSGSPLYQLDLNRRFGHIRNGLSQPELDDFVLASAVHTIQTKKPNIMFVHFTDLDTQRHYHGFESNETIAAIQRHDERLGKIIQALKESDLYEESTIIALGDHSALSENKSIQLNVLFHQRGLISLNKKRKLVDWKAYCQSCDGSAYVYVKDKNDTDTIREVQLLLEELLQNKQNGIEFILHDEAAKDCGADGNCLFMLEAREGYYFTENYTGDFIKEITEKDVTLSKKYTFGTHGYSPTKPNYETIFIAAGKGIKSGVTVPYMRLIDEGPTIARLLGLHLGETDGAIVEDLLQLLEHHHHHH” reads “not failed”. For “MSPEAKEAQDSRRNEMPEKKRAVLRKAIKLEWATIAWVLFSIVLVGVVAGQSQAMRSAWIEDMLSLVPPIAFLLASRISKAVATRKHPYGKHRSIAIGHQAAALALLIMGSLLIYEAVSALIKGERPPIGLAILFGHDVWSGWLMIGVMISVSIPMVIVGRVKINLAKDLHDKLLYADADMAKADWGTAVASTVGVLGIGLGFWWADAVAALVISASILRDGVINMKAAISDLGDGRAMTYDNSAPHPLNDDVEKAALEMHWVKHARARIRDQGRCFHTELFVEPVEGYTPAPEEITSLVKRIQNLDWKLQDVVASVVEKIDRFQAPS” the value was “failed”; for “MVKIGVCGPVGSGKTALIEALTRHMSKDYDMAVITNDIYTKEDAEFMCKNSVMPRERIIGVETGGCPHTAIREDASMNLEAVEEMHGRFPNLELLLIESGGDNLSATFNPELADFTIFVIDVAEGDKIPRKGGPGITRSDLLVINKIDLAPYVGADLKVMERDSKKMRGEKPFIFTNIRAKEGLDDVIAWIKRNALLED”, “failed”. In the case of “MKYEYPAELPVSAARDEIASAVKRSQVVIVSGQTGSGKTTQLPKILLELGRGTHGKQIVHTQPRRIAARTVAERIASEMGVKLGDEVGYQVRFTDESSPGTRLRVVTDGILLAQIQRDPKLTRYDTIIIDEAHERSLNIDFLLGYLTALLPQRRDLKLIITSATIDSVKFQEHFEHALHEKVPVIEVSGRTFPVQVVYEPLGTAPALMREVPGFAVGARPGDADYDELASAIAESDSDRPRGRSGASYADDGITDMPTAVARACAELVIHSSHERGPRDILVFASGERDIHEFEAALRHHYGPRADDMRRPDAIEIMPLFARLSAADQHKVFESHLHQRIVIATNVAETSLTVPGIRYVVDPGSARISRYSKTAKVQRLPIEPISQASADQRSGRCGRVADGIAIRLYSREDYETRPRFTEPEILRTSLGAVVLHMLSVGVARTAEDVTNFGFIDPPDMKAVSDGFNELTELKAIGRKRGEVTLTHTGRQLARIPIDVRLGRMVIEAAKTGSPNLLAQVLVVVAFLSLQDPRERPDDKREDADRIHNRYADETSDFLTALNIWDRVFQADGDPSNNALRRICKTEYFSWLRMRQWKDLVSQLRQMCKELKFKVGDPLPASRPGLEIRQLPLNQQAAHSLCCAWDADGIHKSMLAGLLSMMGMQVVREPKASDFAGLTGSARARAMKRAQKQSKNDYQGARGTRFALFPASAVAKKTPSWVMSTELVETSRLWARYSAAIDPAWAEPLAGQLTRTTYAEPHWSGSRGSAVATARVLLYGLPIVQDRAVQWGRINPLEARDFLIRQGLVEGDIQQRFSYDDFVGKNRDILEDAADDASRTRQLADTVSDEDLFDFYNAVIPNDVTSVADLAKWWKSEHDRQPNLLDFDPAKVERLASSDSVSLDDYPDHWHTTGSDGQPIDLRLSYVYDPADPADGVTVHVPLKALSRITPDQFTWNVPGLLDELILSMIKALPKQLRVQFVPAPDAARAIRDWIDEHYPDLPGSGSQQKPNLPPVDEDGTTVGWPDLAHVFTKAAIATKGAQIHPEVLGPELVERLSPYLRVTFSVEQQLPAGKHPRGRRHARGPIKVLGVSKDLKALQRKFAAQAEASARQMVKKQADQAGEQGKLVSQANLLHKAGATTESRATMLWRGALDALRLPAERISSRWLGTEALMLASAPYKSTKDLVEDLQLATVKRLMPNVDRLSDDEALANAVLDVREVYEDTVYQVAHDVIAVLKAYAEVDKATGGKADLPMLSVLQSIRDHIATLVYPGFIGRTPPDALKSLSRYLRADLSRLNKAKTDKNRDVKWAWQADEARQVVDKALARAKAEPAGPKHEALMKQAEQARWMLEEFYVSLWAQELGTKGPASLNRIKKALA”, the protein production entry was “failed”. For “MQTASRAHADSRHGLFLILFSAMLWGTVGITTKALYGLADTTPLSIGFFRLALAVPVLVAACRLATGPAMFRVARRDLGTMIVVGAMTALYQVCYFAAIRQIGVAAATLVTLCTAPVIVALLSAILTGERPSGRVLLSLACALAGTALLVGLRPLAGEGGNIPLGIAQALGSAFSYASVTVASRTLAGRYHPLQPVAIGFAAGALFLLPTALADGLVLTYPAAGWVLLLYLGVVPTALAYALFLAGMRTTTATAASICTLLEPLVSTVLAWLIFGERLGPLGAVGAVLLFGAIGLLARPVRRRQSSAA” the value was “failed”.

The record behind these values is a protein production outcome set (Wang et al. 2014).
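Also: failed if final PepcDB status was selected cloned or expressed and not failed if soluble or beyond.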
